# US20250340625A1, “ANTIBODY SPECIFICALLY BINDING TO ANGIOPOIETIN-2, OR FRAGMENT THEREOF” (NEORTESBIO INC., priority 2021, published 2025)
# B1: 1D3: mouse anti-Ang2 monoclonal antibody; CDRs SEQ ID NO: 18-23, VH SEQ ID NO: 24, VL SEQ ID NO: 25 (antibody, V domains shown)
# VH: DVQLQESGPGLVKPSQSLSLTCTVTGYSITSDYGWNWIRQFPGNKLEWMGYISYSGTTSYNPSLKSRISITRDTSKNQFFLQLNSVTTEDTATYYCARSEGTGFYAMDYWGQGTSVTVSSAKTTPPKLY
# VL: SIVMTQTPKFLLVSAGDRVTIICKASQSVSNDVAWYQQKPGQSPKLLIYYASNRYTGVPDRFTGSGYGTDFTFTISTVQAEDLAVYFCQQDYSSPTFGGGTKLEIKRA
# modifications: VH; VL
# Experiments:
# [1] = system: Tie2 receptor downstream signaling in HUVEC cells; assay: Western blot of AKT and ERK 42/44 phosphorylation (Tie2 downstream signaling) in HUVEC cells; type: cell-based; conditions: 60 nM anti-Ang2 antibody mixed with 40 nM Ang2, 10 minutes, FIG. 1
# Method: Ang2 binds to the Tie2 receptor expressed on vascular endothelial cells and acts as a weak agonist or antagonist. Since the anti-Ang2 antibody developed in the present invention binds to Ang2 and forms a complex with Ang2-Tie2, thereby activating the Tie2 receptor and promoting downstream signaling, ERK and AKT phosphorylation experiments were performed to analyze the effect of anti-Ang2 antibodies on Tie2 downstream signaling using a cell-based assay. To compare the degree of activation of Tie2 downstream signaling, the same test was performed on the group treated with Ang2 (Sino Biological) and another Ang2 control antibody (Korean Patent Publication No. 10-2015-0136031).
# Specifically, HUVEC (Lonza) cells (2×10^5) were cultured at 37° C. using EGM-2 (Lonza) medium, and when 80-90% confluency was observed, they were changed to 0.5% FBS Basal media (Lonza) for […]. Cultured at 37° C. for […]. 60 nM of anti-Ang2 antibody was mixed with 40 nM of Ang2 protein (Sino Biological) and left for 30 minutes. Then, the cultured cells were treated and incubated for another 10 minutes. For comparison, groups treated with 40 nM Ang2 and 40 nM Ang2+60 nM anti-Ang2 control antibody were prepared. […]
# [2] = system: Tie2 downstream signaling (AKT phosphorylation) in HUVEC cells; assay: Phospho-Akt1 (Ser473) sandwich ELISA of Tie2 downstream signaling in HUVEC cells; type: cell-based
# Method: To quantitatively analyze the effect of anti-Ang2 antibodies on Tie2 downstream signaling, the level of AKT phosphorylation was measured using ELISA.
# HUVEC (Lonza) cells (2×10^5) were cultured at 37° C. using EGM-2 (Lonza) medium, and when 80-90% confluency was observed, they were changed to 0.5% FBS Basal media (Lonza) and cultured at 37° C. for 16 to 24 hours. 60 nM of anti-Ang2 antibody was mixed with 40 nM of Ang2 protein (Sino Biological) and left for 30 minutes. Then, the cultured cells were treated and incubated for another 10 minutes. For comparison, groups treated with 40 nM of Ang2, 40 nM of Ang2+60 nM of anti-Ang2 control antibody (h10D6-OPTI-67, U.S. Pat. No. 10,934,350) were prepared. The cells were washed with PBS, treated with the lysis buffer, centrifuged at 13,000 rpm for 15 minutes, and the supernatant was recovered to obtain a cell lysate.
# For ELISA, 50 μL of PathScan®Phospho-Akt1 (Ser473) Sandwich ELISA Antibody Pair (Cell signaling) capture antibody diluted 1:100 was added to a 96 well ps half area plate (Greiner cio-one) and coated. Then, the plate was washed four times with PBST (Phosphate Buffer Saline containing 0.05% (v/v) Tween-20) and then blocked with PBST containing 1% (v/v) skim milk at 37° C. for […]. […] Afterwards, 50 μL of Stop solution was added to stop the reaction, and the OD450 value was measured on a plate reader (BioTek).
molecule,measurement,setting,value
B1,AKT and ERK activation signals (western blot) compared to the negative control group,[1],showed AKT and ERK activation signals
same,"Order of AKT phosphorylation curves in FIG. 2, from the curve with the highest value","[2]; HUVEC cells together with Ang2, printed order 1D3, 2C8, 1A9, 1H10, control 67 clone",highest
same,Tie2 downstream signal (AKT phosphorylation ELISA) compared to previously known control antibodies,"[2]; HUVEC cells, antibody together with 40 nM Ang2, OD450, FIG. 2",significantly stronger Tie2 downstream signal
